This note sets out measurements from paper PMC8050779.

In assay [1] the target is oxytocin ion channel-coupled receptor with the T4 phage lysozyme domain, OXTR(T4L) fused to Kir6.2 (not stated | T4 phage) (UniProt P30559).
Assay [2] shares this target. The source holds these as a separate data set.

Chain of oxytocin (P01178 whole entry, looked up, the tested form may be a part): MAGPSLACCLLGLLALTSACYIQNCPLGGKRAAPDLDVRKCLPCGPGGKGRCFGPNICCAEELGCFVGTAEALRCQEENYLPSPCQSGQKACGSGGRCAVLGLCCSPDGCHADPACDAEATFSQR
Chain of UniProt P30559 (P30559 whole entry, looked up, the tested form may be a part): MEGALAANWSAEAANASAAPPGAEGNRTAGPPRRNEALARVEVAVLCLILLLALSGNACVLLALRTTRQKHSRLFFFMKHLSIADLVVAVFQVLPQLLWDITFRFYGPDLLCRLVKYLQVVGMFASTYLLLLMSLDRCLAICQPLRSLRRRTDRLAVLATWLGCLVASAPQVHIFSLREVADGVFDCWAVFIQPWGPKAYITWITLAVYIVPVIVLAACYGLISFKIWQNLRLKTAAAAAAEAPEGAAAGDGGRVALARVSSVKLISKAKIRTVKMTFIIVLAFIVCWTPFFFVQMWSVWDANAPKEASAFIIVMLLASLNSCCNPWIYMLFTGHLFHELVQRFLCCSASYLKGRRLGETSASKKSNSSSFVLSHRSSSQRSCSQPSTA

For “oxytocin (from UniProt P01178 20-28) (peptide)”, in assay [1], the amplitude of ICCR activation by 1 μM oxytocin, TEVC, after co-incubation with 20 mM MβCD and 5 μM oxytocin for at least 3 h and washing (% of the basal current) came to 100; the amplitude of ICCR activation by 1 μM oxytocin, TEVC, control without MβCD (Buffer + 5 μM oxytocin, at least 3 h) (% of the basal current) was found to be 120. Moreover, in assay [2], the ICCR activation by 1 μM oxytocin, TEVC, after cholesterol depletion and repletion with cholesterol (% of the control before incubation) turned out to be 70; the ICCR activation by 1 μM oxytocin, TEVC, after cholesterol depletion and repletion with cholesteryl hemi-succinate (CHS) (% of the control level before incubation) turned out to be 45.
